This note sets out measurements from publication doi:10.1101/2021.08.25.457658.

Read-outs that look alike come from different tables or passages of the source.

The target of series [1] is T1, GST-p50 (NF-kB p50 subunit) (UniProt P19838-2 1-433, del434-969). The series can be described thus: EMSA. (A gel shift assay detects complexes by their altered migration in electrophoresis.)
Series [2] has as its target T1, GST-p50 (NF-kB p50 subunit). The experiment in a line: EMSA. The source holds these as a separate data set.

B1: Spic promoter NF-kB site WT (dsDNA)
DNA 1: GCTGCAAAGGGGATTTTTTTT
DNA 2: AAAAAAAATCCCCTTTGCAGC
For the molecule B1, the binding result in series [1] is on record as “binds”.

B2: Spic promoter NF-kB site mutant (dsDNA)
DNA 1: GCTGCAAAGCCGATTTTTTTT
DNA 2: AAAAAAAATCGGCTTTGCAGC
For the molecule B2, in series [2], the binding result was “no binding”.
